Article PMC10063554

Tests used:
[1] = molecular target: evolved PTH1R variant P34_05 (human) (UniProt Q03431); assay: AlphaScreen or HTRF; binding of 40 nM M-PTH(1–14) to membrane fractions supplemented with increasing concentrations of mini-Gs; data relative to PTH1R without mini-Gs; EC50 of mini-Gs read through ligand occupancy, apparent
[2] = molecular target: evolved PTH1R variant P34_13 (human) (UniProt Q03431); assay: as above
[3] = molecular target: SNAP-tagged NTR1-R167L (rat) (UniProt P20789); assay: AlphaScreen or HTRF; whole HEK293T cells with SNAP-Lumi4-Tb-labelled NTR1; 2 nM HL488-NT(8–13) tracer with a range of unlabeled NT(8–13); 4 h on ice; 20 mM HEPES pH 7.5, 100 mM NaCl, 3 mM MgCl2, 0.02% BSA
Chain of UniProt P20789 (P20789 43-424 R167L): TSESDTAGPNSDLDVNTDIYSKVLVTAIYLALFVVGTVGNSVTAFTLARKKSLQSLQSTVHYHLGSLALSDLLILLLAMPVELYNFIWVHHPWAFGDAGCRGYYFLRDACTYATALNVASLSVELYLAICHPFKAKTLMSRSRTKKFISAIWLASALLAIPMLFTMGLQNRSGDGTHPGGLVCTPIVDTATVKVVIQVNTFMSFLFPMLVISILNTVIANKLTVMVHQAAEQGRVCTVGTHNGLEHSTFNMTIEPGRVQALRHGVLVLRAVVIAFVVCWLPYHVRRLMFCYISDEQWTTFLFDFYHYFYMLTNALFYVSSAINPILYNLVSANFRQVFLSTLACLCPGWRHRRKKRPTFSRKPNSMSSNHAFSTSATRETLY

Row | Substance | EC50 [1] [nM] | EC50 [2] [nM] | fold increase in affinity against wild-type NTR1 [3] [fold]
1 | Mini-Gs 393 | 280 | 380 | 
2 | Neurotensin 8–13 (peptide) |  |  | 3
